According to article PMC11770808, “Interplay between conformational dynamics and substrate binding regulates enzymatic activity: a single-molecule FRET study” (Chemical Science, 2025):

Test system: T1, Nc1ncnc2c1ncn2[C@@H]1O[C@H](COP(=O)(O)OP(=O)(O)O)[C@@H](O)[C@H]1O
T1 construct: purified recombinant, details only in ESI
Experiment: coupled assay (hexokinase / glucose-6-phosphate dehydrogenase), initial velocities fitted to Michaelis-Menten
Type: biochemical, Escherichia coli
Conditions: backward reaction, 0 M urea, dye-labelled enzyme (A73C/V142C background inferred), 50 mM Tris-HCl pH 8.0, 100 mM KCl, 10 mM MgCl2

Substance: adenylate kinase (AK), wild-type (WT) (Escherichia coli K-12; A73C/V142C)
- Km: 1340(±98) µM
